In IntAct's records for PubMed 22892567:

Target: cbx3_mouse Cbx3 (UniProt P23198)
Sequence (P23198 whole entry): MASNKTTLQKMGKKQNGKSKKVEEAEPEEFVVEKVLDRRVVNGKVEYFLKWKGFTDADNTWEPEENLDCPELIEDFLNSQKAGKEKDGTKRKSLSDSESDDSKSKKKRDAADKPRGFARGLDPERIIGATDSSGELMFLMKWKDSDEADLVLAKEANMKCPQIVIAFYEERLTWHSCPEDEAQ

Row | Substance | effect of a mutation on the interaction
1 | Voltage-dependent L-type calcium channel subunit beta-4 (Rattus norvegicus (Rat)) (from UniProt D4A055) P220A | disrupting interaction strength
2 | Voltage-dependent L-type calcium channel subunit beta-4 (Rattus norvegicus (Rat)) (from UniProt D4A055) V222A | disrupting interaction
